Test system: T1, Nc1ncnc2c1ncn2[C@@H]1O[C@H](COP(=O)(O)OP(=O)(O)OP(=O)(O)O)[C@@H](O)[C@H]1O
T1 construct: full length, codon-optimized synthetic gene; C-terminal eYFP-Rho1D4 tag cut off with 3C protease; HEK293 Flp-In TREX; homodimer; in DDM/CHS, liposomes or MSP1D1 nanodiscs
Assay: molybdate-based colorimetric ATPase assay
Type: biochemical, Homo sapiens
Details: BPL/Chol liposomes and nanodiscs, 10 mM MgCl2, pH 7.5, 37 °C, ATP 0.0625 to 8 mM

ABCD1 (ALDP) (Homo sapiens) was tested, and the Km was “about 0.3 mM”.

Source: article PMC8748874, “Structures of the human peroxisomal fatty acid transporter ABCD1 in a lipid environment” (Communications Biology, 2022)
